In US20170267762A1 (APOLLOMICS, published 2017):
Substitutions are numbered along the chain they refer to.

B1: chimeric 13F1-hIgG4 (antibody, V domains shown)
VH: DVQLQESGPGLVKPSQSLSLTCTVTGYSITSDYAWNWIRQFPGNQLEWMAYISYSGYTSYNPSLKSRISITRDTSKNQFFLQLNSVTTEDTATYYCARSLDYDYGTMDYWGQGTSVTVSS
VL: QIVLSQSPAILSASPGEKVTMTCRANSSVSSMHWYQQKPGSSPEPWIYAISNLAFGVPTRFSGSGSGTSYSLTISRVEAEDAATYFCQQWSSRPPTFGGGTKLEIKR
notes: Full chimeric chains; also called 13F1-chimeric
B2: chimeric 7A4-hIgG4 (antibody)
heavy: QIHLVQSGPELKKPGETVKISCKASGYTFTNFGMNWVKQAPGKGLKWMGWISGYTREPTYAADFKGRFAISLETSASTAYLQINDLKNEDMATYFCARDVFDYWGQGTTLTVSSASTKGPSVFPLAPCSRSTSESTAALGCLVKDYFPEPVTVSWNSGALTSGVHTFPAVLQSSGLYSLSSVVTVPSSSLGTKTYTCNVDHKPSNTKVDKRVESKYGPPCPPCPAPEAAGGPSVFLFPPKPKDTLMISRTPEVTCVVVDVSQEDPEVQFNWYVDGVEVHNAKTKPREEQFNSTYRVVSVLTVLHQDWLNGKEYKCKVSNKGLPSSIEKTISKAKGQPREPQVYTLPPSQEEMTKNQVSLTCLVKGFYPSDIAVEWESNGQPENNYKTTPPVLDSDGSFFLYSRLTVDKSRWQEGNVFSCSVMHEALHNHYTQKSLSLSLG
light: DIVLTQSPASLAVSLGQRATISCRASESVDNYGYSFMNWFQQKPGQPPKLLIYRASNLESGIPARFSGSGSRTNFTLTINPVEADDVATYFCQQSNADPTFGGGTNLEIKRTVAAPSVFIFPPSDEQLKSGTASVVCLLNNFYPREAKVQWKVDNALQSGNSQESVTEQDSKDSTYSLSSTLTLSKADYEKHKVYACEVTHQGLSSPVTKSFNRGEC
notes: Full chimeric chains
B3: chimeric 7A4-hIgG1 (antibody)
heavy: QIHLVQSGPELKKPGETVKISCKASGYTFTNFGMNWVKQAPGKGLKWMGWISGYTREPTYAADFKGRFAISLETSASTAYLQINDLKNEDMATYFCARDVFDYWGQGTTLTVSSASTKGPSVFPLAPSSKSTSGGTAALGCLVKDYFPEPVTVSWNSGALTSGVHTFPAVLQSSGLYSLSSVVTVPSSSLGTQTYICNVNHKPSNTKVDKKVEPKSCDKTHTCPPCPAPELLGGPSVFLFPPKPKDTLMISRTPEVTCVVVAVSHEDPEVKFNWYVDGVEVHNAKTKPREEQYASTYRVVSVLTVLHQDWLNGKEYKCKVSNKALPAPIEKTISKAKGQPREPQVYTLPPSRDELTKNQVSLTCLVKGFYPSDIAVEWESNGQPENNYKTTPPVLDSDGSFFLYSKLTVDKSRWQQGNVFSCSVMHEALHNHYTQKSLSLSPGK
light: B2 light
notes: Full chimeric chains; also called 7A4-chimeric-IgG1
B4: chimeric 14A6-hIgG4 (antibody, V domains shown)
VH: B1 VH with K76R
VL: B1 VL with T59A, S91N
notes: Mouse variable regions with human IgG4 constant region
B5: chimeric 10D1-hIgG4 (antibody, V domains shown)
VH: EVKLVESGGGLVKPGGSLKLSCAASGFTFSSYGMSWLRQTPEKRLEWVATMSGGGRDIYYPDSMKGRFTISRDNAKNNLYLQMSSLRSEDTALYYCARQYYDDWFAYWGQGTLVTVSA
VL: DIVLTQTPATLSVTPGDSVSLSCRASQSISNNLHWYQQKSHESPRLLIKYASQSISGIPSRFSGSGSGTDFTLNINSVETEDFGMYFCQQSNSWPLTFGAGTKLELKR
notes: as for B4
B6: chimeric 4C10-hIgG4 (antibody, V domains shown)
VH: QVQLKQSGPGLVQPSQNLSVTCTVSGFSLTTYGVHWVRQSPGKGLEWLGVIWSGGSTDYNAAFISRLTISKDNARSQVFFKMNSLQVNDTAMYYCAREKSVYGNYVGAMDYWGQGTSVTVSS
VL: SIVMTQTPKFLLVSAGDRVTITCKASQSVSDDVAWYQQKPGQSPKLLIYYAFNRYTGVPDRFTGSGYGTDFTFTISTVQSEDLAVYFCQQDYRSPWTFGGGTKLEIKR
notes: as for B4

Each binder was assayed against T1, human PD-1 on cells (293T cells transfected with human PD-1) (human, UniProt Q15116 25-288) (assay: FACS binding to 293T cells expressing human PD-1, MFI).
T1 construct: whole, on cells; Also used as the target for the functional rows, where PD-1 stands on human T cells
T1 sequence (Q15116 25-288): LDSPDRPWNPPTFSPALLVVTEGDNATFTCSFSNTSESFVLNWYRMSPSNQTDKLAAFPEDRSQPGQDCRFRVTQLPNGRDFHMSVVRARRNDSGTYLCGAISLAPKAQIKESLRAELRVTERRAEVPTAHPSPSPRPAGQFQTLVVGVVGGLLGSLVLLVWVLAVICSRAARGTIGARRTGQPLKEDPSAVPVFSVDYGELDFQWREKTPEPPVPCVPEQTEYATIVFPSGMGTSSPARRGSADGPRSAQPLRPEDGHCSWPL
Description: (§1) The cells were incubated with the indicated antibody (20 ug/ml with the dilution of ⅕) at 4° C. for 1 h. Cells were washed three times with FACS buffer. A secondary antibody (PE Goat anti-mouse: 1:200; PE mouse anti-human: 1:10) was added to the cells at 100 ul/well, and incubated at 4° C. for 40min. Cells were washed three times with FACS buffer and analyzed by FACS Array.

EC50 [µg/mL]	Binder
0.0815	B1
0.137	B2
0.0337	B3

Each binder was assayed against T2, human PD-1 extracellular domain fused with human Fc tag (hPD-1-hFc) (human) (assay: ELISA binding to plate-bound PD-1, OD450 (methods similar to Example 2: plate coated with PD1-hFc)).
T2 construct: also called human PD-1-hFc
T2 sequence (chain, as listed by the source limits assumed): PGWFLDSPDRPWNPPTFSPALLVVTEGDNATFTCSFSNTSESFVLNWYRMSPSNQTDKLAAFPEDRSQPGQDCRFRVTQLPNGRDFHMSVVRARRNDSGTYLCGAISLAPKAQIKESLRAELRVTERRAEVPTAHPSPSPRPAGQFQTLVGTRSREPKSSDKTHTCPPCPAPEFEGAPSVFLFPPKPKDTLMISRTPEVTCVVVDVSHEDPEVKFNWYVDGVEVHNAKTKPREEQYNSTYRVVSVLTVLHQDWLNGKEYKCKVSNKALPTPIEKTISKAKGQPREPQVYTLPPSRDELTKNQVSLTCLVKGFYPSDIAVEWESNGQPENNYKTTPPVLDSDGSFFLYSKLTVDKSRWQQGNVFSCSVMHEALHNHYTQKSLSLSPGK
Description: (§2) ELISA binding analysis was conducted based on human PD-1-hFc Protein. 96-well plates (Costar, Cat No:9018) were coated with 100 μL of 2 μg/ml PD1-hFc (CrownBio) in coating buffer (PBS, Hyclone, Cat No:SH30256.01B) overnight at 4° C. The wells were aspirated and non-specific binding sites were blocked by adding 200 μL of blocking buffer with 1% (w/v) of bovine serum albumin (BSA, Roche, Cat No: 738328) and incubating for 1 hour at 37° C. After the plates are washed three times with wash buffer (PBS with 0.05%(v/v) Tween20 (Sigma, Cat No:P1379), 100 μL/well of a suitable dilutions of hybridoma supernatant in blocking buffer were added and incubated at room temperature for 1 hour. The plates were washed and incubated with 100 μL/well of Goat anti-Mouse IgG (H+L) (Thermo, Cat No: 31432) in blocking buffer for 60 min. After the plates were washed, 100 μL/well of substrate solution (TMB(eBioscience, Cat No:00-4201-56) was added and the plates were incubated for 2min at room temperature. 100 μL/well of stop solution (2N H2SO4) was added to stop the reaction. The colorimetric signals were developed and read at 450 nm using a Auto Plate SpectraMax Plus (Supplier: Molecular Devices; Model: MNR0643; Software: SoftMax Pro v5.4).

EC50 [µg/mL]	Binder
0.0456	B1
0.0474	B2
0.0128	B3

The binders below were run against T3, human PD-1 extracellular domain fused with mouse Fc (PD-1-mFc) (human, UniProt Q15116 25-170) (assay: ELISA ligand blockage: biotinylated PD-L1-mFc binding to plate-bound PD-1, OD450 (methods similar to Example 2: PD-1-mFc coated)).
T3 construct: extracellular domain; not used because of the label; also called hPD-1-mFc; human PD-1-mouse Fc fusion protein
T3 sequence (Q15116 25-170): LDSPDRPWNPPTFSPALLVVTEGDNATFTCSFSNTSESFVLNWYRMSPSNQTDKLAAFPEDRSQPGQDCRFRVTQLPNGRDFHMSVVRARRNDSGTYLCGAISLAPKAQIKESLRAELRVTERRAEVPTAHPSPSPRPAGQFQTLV
Description: (§3) PD-1-mFc antigen (CrownBio) was suspended in PBS (Hyclone,Cat No:SH30256.01B) buffer (2 ug/ml, 100 ul/ well) and coated on the 96 well plate (costar, Cat No.:9018) 4° C. overnight. Plates were washed 3 times using washing buffer: PBS+0.05% Tween 20(Sigma, Cat No.:P1379). 200 ul of blocking buffer (PBS+1%BSA(Roche, Cat No.:738328)), was added to each well, incubated at 37° C. for 1 hour, and washed 3 times. Various concentrations (suitable dilutions of hybridoma supernatant in PBS) of the anti-PD-1 Abs were added to the wells (100 μl/well) and incubated at 37° C. for 1 hour. […] Secondary antibody (Avidin HRP eBioscience cat No.:E07418-1632, 1:500, 100 ul/well) was added, incubated at 37 ° C. for 0.5 hour, and washed 3 times. TMB (Sigma, Cat No.: T0440, 100 ul/well) was added, and incubated for 3 min at RT. To stop the reaction, 2N H2SO4 (100 ul/well), was added. The colorimetric signals were developed and read at 450 nm using a Auto Plate SpectraMax Plus (Supplier: Molecular Devices; Model: MNR0643; Software: SoftMax Pro v5.4).

IC50 [µg/mL]	Binder
0.878	B1
0.845	B2
0.356	B3

These binders were tested against T1, human PD-1 on cells (293T cells …) (assay: FACS blockage on hPD-1-293T cells, competitor biotin PD-L1).
Description: Various concentrations of the testing hybridoma antibodies were added to the cell suspension and incubated at 4° C. for 60 minutes in 96 well plates. […] Plates were washed 3 times, and mouse anti-biotin PE antibody (Biolgend, cat# 409004) was added. Flow cytometric analyses were performed using a FACS Array.
(§4) Freestyle 293 cells (200 mL at 10⁶/mL) were transfected with 100 μg of each of the chimeric heavy and light chain expression plasmids and cultured for 6 days. The chimeric antibody in the supernatant was then purified with Protein-G column (GE healthcare).

IC50 [µg/mL]	Binder
0.0521	B1
0.0614	B4
0.0706	B2
0.0403	B5
0.129	B6

What follows are binders tested against T3, human PD-1 extracellular domain fused … (assay: blockage ELISA, coated PD-1-mFc, competitor PDL-1-mFc-biotin).
Description: as §3, §4

IC50 [µg/mL]	Binder
0.856	B1
0.823	B4
0.871	B2
1.03	B5
0.978	B6

The binders below were run against T2, human PD-1 extracellular domain fused … (assay: ELISA on coated PD1-hFc).
Description: as §2, §4

EC50 [µg/mL]	Binder
0.0587	B1
0.0646	B4
0.062	B2
0.0588	B5
0.0946	B6

What follows are binders tested against T1, human PD-1 on cells (293T cells …) (assay: FACS on hPD-1-293T cells).
Description: as §1, §4

EC50 [µg/mL]	Binder
0.113	B1
0.103	B4
0.0916	B2
0.219	B5
0.221	B6
